Assay: label from the status in PepcDB records

Sequence | protein production
MAAPELLIPWADFLLCVALIAVAGNRLSRYGDVIAEKTGLSGSWIGLILLATATSLPELITGAAAVTAAGAPDIAAGDVLGSCVFNLVILVALDFLHRHESVYRRASQGHLLSAGFGIILLGLVGVNLLLADKHIVPTLGWVGLYSPLLGLLYLFSMRAVFLYEREQMAAFTEDMTEQYPGIRLRRAVMWYVAVAAVVVGAGVWLPSIGTTLAEVMGWNKSFVGTLFVAAATSMPELSVTIGAVRIRAVDMAIANLLGSNLFDLCILAIDDLAYLPGPLLSHVSSVHALSAFSAMVMTGIFIVGLLYRAGTRLFKTVGWVSIALLLVYLGNAYVLYLYDK | failed
MAAPGGRGRSLSGLLPAQTSLEYALLDAVTQQEKDSLVYQYLQKVDGWEQDLSVPEFPEGLEWLNTEEPISVYKDLCGKIVVLDFFTYCCINCIHLLPDLHALEHTYSDKDGLLIIGVHSAKFPNEKVLDNIKSAVLRYNITHPMVNDADASLWQELEVSCWPTLVILGPRGNMLFSLIGEGHKDKLFLYTSIALKYYKDRGQIRDNKIGIKLYKDSLPPSPLLFPGKVTVDQVTDRLVIADTGHHRILVVWKNGQIQYSIGGPNPGRKDGIFSESTFNSPQGVAIMNNIIYVADTENHLIRKIDLEAEKVSTVAGIGIQGTDKEGGAKGEQQPISSPWDVVFGTSGSEVQRGDILWIAMAGTHQIWALLLDSGKLPKKNELTKGTCLRFAGSGNEENRNNAYPHKAGFAQPSGLSLASEDPWSCLFVADSESSTVRTVSLKDGAVKHLVGGERDPMNLFAFGDVDGVGINAKLQHPLGVTWDKKRNLLYVADSYNHKIKVVDPKTKNCTTLAGTGDTNNVTSSSFTESTFNEPGGLCIGENGELLYVADTNNHQIKVMDLETKMVSVLPIFRSENAVVDGPFLVEKQKTLPKLPKSAPSIRLSPVTACAGQTLQFKLRLDLPSGSKLTEGVSSCWFLTAEGNEWLLQGQIAAGDIENISSQPTISLQIPDDCLSLEAIVSVSVFLYYCSADSSACMMKAILFSQPLQITDTQQGCIAPVELRYVF | failed
MAAPRPGPLRPARGFAPMNNVNGILLVVAAMAAFSIEDMFIKKLSVTVPIGQILLVLGVFCSAAFLTMAVATRKRVFSRAAWSPLLLIRAATEAVSALTFATALSLVDLSTVAAVFQAMPLVVTMGAALFLGEQVGWRRWSAITVGFVGVLMIIRPGMAGFQPAQLLVVASVISVAARDLITRRIDAHVASAVVSFQAYLALILGGAGILLVSGTALVPVEPGHWGPYAGAILFGVLGYYGIVTAMRVGEASVVTPFRYTRLLFSLLAGVLVFGERPDWPTLAGGALIIGSGLYTFLRERRLARELAAVPA | failed
MAAPRVIMAAPRVIMAAITGVTPEVVNRTRPERRDLADMRAAMKTGFTAVASVIGVGVAGLAYGVIEAHRFVVRHVEVPVLKPGSSPLRILHMSDLHLLARQETKRRFIRQLDALNPDLVINTGDNFCSADSLQPLLDDMSGLLQRPGTFVFGSNDYLVPKFKNPFSYLLWGRSQQATEPVPELPHEELRQAFTSAGWLDLNDKSETLEVAGHRLTLRGTDDAHHDRDHYEEVAGPPDGEADLNIGVTHAPYLKILDAMVSDGMDIVFAGHTHGGQVCLPFTGAIITNCDLDTERAKGLSQHGRGGHTGWLHVSAGLGCSPFAPYRTFCRPEATLLTLVPRP | failed
MAAPSVPTPLYGHVGRGAFSDVYEPAEDTFLLLDALEAAAAELAGVELCLEVGAGSGVVSAFLASMIGPQALYMCTDINPKAAACTLETARCNRVHLQPVITDLVQGLLPRLKGKVDLLVFNPPYVVTPPEEVGSHGIEAAWAGGRNGREVMDRFFPLASQLLSPRGLFYLVTIKENNPVLPRSYGNAANVPELGSGQLGENLLAFKSNIGGLSKGKLYH | failed
MAAPVVVAPAINLQHMDLPEGNEDVAAVLQTSTQRWLNAAEWSILYNNHNLFPESNSFTIPIEVEGLYRVDNRFNQDSNTWRNTSAPSTCKNAINFYNVRIATGLYRFDDDGDIVMDAEVQGGWVLCRKTVRNRGHCGTRLSHLYKPVFDRQFKMLKIHMMEDMIKDGEEKSLDTFVISRQLTTFTDLTGWAFGSSVIVEFKVRLEHLRGKSIPIA | failed
MAARAWVVAVVGFFVMWLMFQVVGWVIGVIWGVWQQLDQATAGTMIEPPQDWKNMLNSLYSNMLGIWNYLPVVVLLSAVVYIIIESLRRRPEEYYV | failed
MAARDPEATKARIFEAAVAEFARHGIAGARIDRIAAEARANKQLIYAYYGNKGELFASVLEKKMLDLAISVPVDPDDIEGWIDRLLDYHAAHPELLRLLFWEGMEYGTAELPHEAERQEHYARKVAAVRDGQERGVITDAIPAPDLLFLLVAMANWAVVVPQMKRILVGGGDAGTDGLRDSIKKAARRIVDR | not failed
MAARRAPISRRDRPAKPALSRRWIVDTAVALMRAEGLEKVTMRRLAQELDTGPASLYVYVANTAELHAAVLDALLGEVDLTGAGAEEDWREQLRAVLTSYTLVLFAHPQLARSALVARPSGENYLRLVERVLELLARSGAPGAQVAWGVDKLLQDATATAAEQATQEHDPASHEDWSATVRALRDADEATHPAIASHMPLLVAGSAHDRLRWSFDVLVNGITRTPVPGPARGAAG | not failed
MAASAHGSVWGPLRLGIPGLCCRRPPLGLYARMRRLPGPEVSGRSVAAASGPGAWGTDHYCLELLRKRDYEGYLCSLLLPAESRSSVFALRAFNVELARVKDSVSEKTIGLMRMQFWKKTVEDIYCDNPPHQPVAIELWKAVKRHNLTKRWLMKIVDEREKNLDDKAYRNIKELENYAENTQSSLLYLTLEILGIKDLHADHAASHIGKAQGIVTCLRATPYHGSRRKVFLPMDICMLHGVSQEDFLRRNQDKNVRDVIYDIASQAHLHLKHARSFHKTVPVKAFPAFLQTVSLEDFLKKIQRVDFDIFHPSLQQKNTLLPLYLYIQSWRKTY | failed
MAATRLKRRKFPTINEEFYYNQLENGMTVFLIPKESFKETLAVMSSRFGSIDTNFTVNGKKKSYLAGIAHLLEHQLFEMNKQKDAAYEFTKLGAESNAYTTFDKTIYYFSTADNIKKNLDLLQEFTSQINFTDMSIEKEKKIITQEFNMYQDDSDDYLYQVILSKLYPQTSLAEDITGNRDSIDKLTKNNLEENFHYFYQPENLTLLVAGDFDVKRVYKDIVTTQRQLPDRP | failed
MAAVPPENGVDGDDEREEEEEDEEEEEEEEEEENGDEAEEEPRLKYQRMGGNVPALLSNDAASCIAVAARMIALGTHDGTVRILDLLGNQVKEFRAHTAPVNDINFDTEGEYIGSCSDDGSVVINSLFTDDEKMKFDYHRPMKAISLDPDYTKKQSKRFVAGGLAGHLYMNSKKWFGNKDQVLHSGEGPIHSVKWRGSLIAWANDVGVKVYDTAKDQRVTFIEKPRGSPRPEALLPHLVWQDDTLLVIGWGTSVKIASIKSDQQQTGTFRQIQMSSLTQVDIVASFQTSYYISGIAPFGDSLVILAYIPIEGDGEKEFSSTTTLSRQGNAQRPEIRIVSWNNDELTMDALPVHGFEHYKAKDYSLAHAPFPGSSYAGGQWAAGDEPLYYIVSPKDVVIAKPRDAEDHINWLLQHGFHEKALAAVEASEGRTELIDKVGAGYLDHLIVERKYAEAASLCPKLLRGSASAWERWVFHFAQLRQLPVLVPYMPTDNPRLKDTVYEVALVALATNPSYHKELLSAVKSWPRSVYSALTVISAIEPQLNTSSMTDALKEALAELYVIDGQYQKAFSLYADLLKPEVFDFIEKYSLHEAIRGKVVQLMLLDCKRATVLFIQNRDLIPPSEVVPQLLKAGKNPQVLKAGKKCDSRYYLYLYLHALFEVSHDTGKDFHDMQVELYAEYDTKMLLPFLRSSQHYKLEKAYELCVKKDFLREQVFVLGRMGNAKQALAVIINKLGDIEEAVEFVSMQHDDDLWEELIKQCLNKPEMVGLLLEHTVGNLDPLYIVNMVPNGLEIPRLRDRLVKIVTDYRTETSLRHGCNDILKTDIVNLLVKCFNEARRGVCLSHEDDDSRAKREDNNRSSFSQRMVVDKSLSIKMTEVKSKTRGDTRCCMCFDPVSIRGDTVVVFFCCHAYHETCLMDAAFSNNNHKTTKGSSGYEYSYDNGVDEEEEDEEEDEDGDGDRPGRSRLRCILCTTAAAASAR | failed
MAAVVAATALKSRGARNARVLRGILAGATANKVSHNRTRALQSHSSSEGKEEPEPLSPELEYIPRKRGKNPMKAVGLAWYSLYTRTWLGYLFYRQQLRRARNRYPKGHSKTQPRLFNGVKVLPIPVLSDNYSYLIIDTQAQLAVAVDPSDPRAVQASIEKEGVTLVAILCTHKHWDHSGGNRDLSRRHRDCRVYGSPQDGIPYLTHPLCHQDVVSVGRLQIRALATPGHTQGHLVYLLDGEPYKGPSCLFSGDLLFLSGCGRTFEGNAETMLSSLDTVLGLGDDTLLWPGHEYAEENLGFAGVVEPENLARERKMQWVQRQRLERKGTCPSTLGEERSYNPFLRTHCLALQEALGPGPGPTGDDDYSRAQLLEELRRLKDMHKSK | failed

Source: a protein production outcome set (Wang et al. 2014)
